In paper PMC11063343 (Frontiers in Cellular and Infection Microbiology, 2024) one finds Kd data, which are given here for 1 molecule.

No end group written: not given here. *: point of attachment. Biotin = O=C1N[C@H]2[C@H](CS[C@H]2CCCCC(=O)*)N1

For this assay, the target named is T1, full length SARS-CoV-2 spike protein (SARS-CoV-2, UniProt P0DTC2).
T1 construct: source: bought: ACROBiosystems
The experiment in a line: SPR. The settings on record: both partners purified.

B1: cellugyrin Inner loop 1A peptide (peptide)
peptide: Biotin-MYCVFNRNEDACRYG
modifications: cysteine pairing not given here
By Kd is commonly meant a measure of binding affinity in units of concentration. B1 yielded a Kd of 4.53 mM. That is a millimolar value.
